Target: T1, α4β1 integrin expressed on Jurkat cells (human, UniProt P13612 34-1032; P05556 21-798)
T1 construct: whole, on cells; Cells labeled with a fluorescent dye (Cyto 82); also called receptor recognizing the CS1 peptide
Experiment: cell adhesion of labeled Jurkat cells on microarray
Experimental: Jurkat T-cells, a human leukemia line, were grown under the appropriate growing conditions. Shortly before the adherence assay, cells were washed with 5 mM EDTA in Tris-buffered saline (TBS, 10 mM Tris-HCl, pH 7.4, 150 mM NaCl) and then incubated with Cyto 82 (2 μM final concentration) for 30 min under continuous agitation. Labeled cells were washed twice with the same buffer and applied directly on the fabricated microarray slides.
The model of interaction chosen for this purpose was α4β1-CS1-interaction model. α4β1 is an integrin expressed by several types of adherent cells and can mediate cell matrix contact trough the known ligand fibronectin. […] The slides were washed extensively and the interaction was scanned by the microarray scanner (FIG. 10).

T1 sequence (P13612 34-1032, chain 1 of 2): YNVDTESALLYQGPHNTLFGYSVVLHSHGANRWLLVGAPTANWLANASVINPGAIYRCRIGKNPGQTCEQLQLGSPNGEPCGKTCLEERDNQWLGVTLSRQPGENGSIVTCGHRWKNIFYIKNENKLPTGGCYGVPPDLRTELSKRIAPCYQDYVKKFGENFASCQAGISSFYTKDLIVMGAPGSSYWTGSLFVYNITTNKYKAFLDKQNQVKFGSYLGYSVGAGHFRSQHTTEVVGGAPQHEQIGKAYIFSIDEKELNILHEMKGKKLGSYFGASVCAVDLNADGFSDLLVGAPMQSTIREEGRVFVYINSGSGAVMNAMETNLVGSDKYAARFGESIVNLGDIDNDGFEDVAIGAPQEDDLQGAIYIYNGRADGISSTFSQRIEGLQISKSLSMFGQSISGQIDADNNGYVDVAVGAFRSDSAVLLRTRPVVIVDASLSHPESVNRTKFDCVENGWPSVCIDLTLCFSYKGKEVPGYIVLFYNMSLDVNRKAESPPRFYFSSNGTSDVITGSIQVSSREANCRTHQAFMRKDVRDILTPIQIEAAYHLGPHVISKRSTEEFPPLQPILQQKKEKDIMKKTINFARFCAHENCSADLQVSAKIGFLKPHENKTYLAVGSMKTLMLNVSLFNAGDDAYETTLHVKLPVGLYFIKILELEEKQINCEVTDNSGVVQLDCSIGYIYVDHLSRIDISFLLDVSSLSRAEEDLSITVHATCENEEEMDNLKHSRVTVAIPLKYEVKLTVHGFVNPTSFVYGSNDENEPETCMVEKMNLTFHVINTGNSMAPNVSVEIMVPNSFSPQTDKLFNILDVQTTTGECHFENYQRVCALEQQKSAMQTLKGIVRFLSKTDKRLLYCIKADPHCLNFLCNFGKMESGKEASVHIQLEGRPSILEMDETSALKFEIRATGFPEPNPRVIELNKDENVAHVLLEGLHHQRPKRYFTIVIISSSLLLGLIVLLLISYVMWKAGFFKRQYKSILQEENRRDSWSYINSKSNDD
T1 sequence (P05556 21-798, chain 2 of 2): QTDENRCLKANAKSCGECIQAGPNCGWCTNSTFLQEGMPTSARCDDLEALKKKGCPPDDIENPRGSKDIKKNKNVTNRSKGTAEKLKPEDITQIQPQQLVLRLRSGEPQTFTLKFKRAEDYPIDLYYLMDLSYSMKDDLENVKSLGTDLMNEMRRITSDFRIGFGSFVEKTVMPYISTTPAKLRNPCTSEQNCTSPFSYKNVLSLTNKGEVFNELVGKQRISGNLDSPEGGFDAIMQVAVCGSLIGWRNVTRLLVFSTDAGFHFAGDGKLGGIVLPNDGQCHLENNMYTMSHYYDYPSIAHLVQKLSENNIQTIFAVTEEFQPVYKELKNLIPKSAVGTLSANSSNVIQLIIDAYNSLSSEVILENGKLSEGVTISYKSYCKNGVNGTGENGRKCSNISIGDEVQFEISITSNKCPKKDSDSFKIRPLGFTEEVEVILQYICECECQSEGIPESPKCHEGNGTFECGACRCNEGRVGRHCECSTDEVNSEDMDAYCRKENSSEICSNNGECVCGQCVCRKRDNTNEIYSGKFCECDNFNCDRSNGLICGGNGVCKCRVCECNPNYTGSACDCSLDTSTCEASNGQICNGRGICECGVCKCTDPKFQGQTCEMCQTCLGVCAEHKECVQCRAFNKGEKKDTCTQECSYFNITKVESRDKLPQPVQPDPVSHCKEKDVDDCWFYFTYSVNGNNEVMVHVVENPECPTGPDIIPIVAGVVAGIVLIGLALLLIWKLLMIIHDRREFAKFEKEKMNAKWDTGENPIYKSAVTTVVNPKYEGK

B1: recombinant protein comprising the cellulose binding region of SEQ ID NO 4 (cellulose binding recombinant protein of Example 1) (other)
chain: NATPTKGATPTNTATPTKSATATPTRPSVPTNTPTNTPANTPVSGNLKVEFYNSNPSDTTNSINPQFKVTNTGSSAIDLSKLTLRYYYTVDGQKDQTFWCDHAAIIGSNGSYNGITSNVKGTFVKMSSSTNNADTYLEISFTGGTLEPGAHVQIQGRFAKNDWSNYTQSNDYSFKSASQFVEWDQVTAYLNGVLVWGKEPGGSVVPSTQPVTTPPATTKPPATTKPPATTIPPSDDPNA
binding result: no binding (tested: highest array concentration)

Source: patent US20050118729A1 (published 2005)
